Measurements from the nanobody polyreactivity screen of Harvey et al. (2022).

Experiment: yeast display, Sf9 membrane polyspecificity reagent, FACS + sequencing; frameworks hold sequencing errors
Method in brief: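 Nanobodies from a synthetic yeast display library (Saccharomyces cerevisiae BJ5465), induced 36–48 hours with galactose, were stained 1 hour at 4 °C with 10% biotinylated, detergent-solubilized Sf9 membrane reagent, enriched on streptavidin microbeads, then FACS-sorted. Anti-HA (expression) and streptavidin (reagent binding) fluorescence set low and high (top ~1%) gates. Polyreactivity labels come from the gate of origin. Genes were colony-PCR amplified, MiSeq 2 × 250 sequenced and filtered by CDR length.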

| Sequence | polyreactivity (PSR sort gate) |
| --- | --- |
| QVQLVESGGGLVQAGGSLRLSCAASGRIFTLYTMGWYRQAPGKERELVAAISSSGGRTYYADSVKGRFTISRDNAKNTVYLQMNSLKPEDTAVYYCNAGYWYYGQDDYWGQGTQVTVSS | high polyreactivity |
| QVQLVESGGGLVQAGGSLRLSCAASGRIFTNYAMGWYRPAPGKEREYVAAISWSGGSTYYADSVKGRFTISRDNAKNTVYLQMNSLKPEYTAVYYCAAVGYAGLPYGLRPNNSGYWGQGTQVTVSS | low polyreactivity |
| QVQLVESGGGLVQAGGSLRLSCAASGRIFTNYVMGWYRQAPGKERELVAAISKSGSRTYYADSVKGRFTISRDNAKNTVYLQMNSLKPEDTAVYYCAKVDTPGSQRYITPDEGPEYEYWGQGTQVTVSS | high polyreactivity |
| QVQLVESGGGLVQAGGSLRLSCAASGRIFTQNAMGWYRQAPGKERELVAAITSGGSTYYADSVKGRFTISRDNAKNTVYLQMNSLKPEDTAVYYCAAEYGTYFVRYYAGASYRYGYWGQGTQVTVSS | low polyreactivity |
| QVQLVESGGGLVQAGGSLRLSCAASGRIFTQNAMGWYRQAPGKERELVAAITSGGSTYYADSVKGRFTISRDNAKNTVYLQMNSLKPEDTAVYYCAKRYPYYLSTMEYWGQGTQVTVSS | low polyreactivity |
| QVQLVESGGGLVQAGGSLRLSCAASGRIFTQYAMGWYRPAPGKERELVAAINASDGSTYADSVKGRFTISRDNAKNTVYLQMNSLKPEDPAVYYCNVTGGPYDFTRWSEFDHWGQGTQVTVSS | low polyreactivity |
| QVQLVESGGGLVQAGGSLRLSCAASGRIFTQYTMGCYRQAPGKERELVAAINYSGGRTNYADSVKGRFTISRDNAKNTVYLQMNSLKPEDTAVYYCAAGYRRATYGYWGQGTQVTVSS | high polyreactivity |
| QVQLVESGGGLVQAGGSLRLSCAASGRIFTRNAMGWYRQAPGKEREFVAAISWSGGSTYYADSVKGRFTISRDNAKNTVDLQMNSLKPEDTAVYYCSAKNSGGYVSWYDYWGQGTQVTVSS | low polyreactivity |
| QVQLVESGGGLVQAGGSLRLSCAASGRIFTRYAMGWYREAPGKERELVAAIRIGDSTNYADSVKGRFTISRDNAKNTVYLQMNSLKPEDTAVYDCAAYLPRRRYYYWGQGTQVTVSS | high polyreactivity |
| QVQLVESGGGLVQAGGSLRLSCAASGRIFTRYAMGWYRQAPGKERELVAVITRSGGSTYYADSVKGRFTISRDNAKNNVDLQMNSLKPEDTAVYYCAAKYYGEMYYWGQGTQVTVSS | low polyreactivity |
| QVQLVESGGGLVQAGGSLRLSCAASGRIFTSNAMGWYRLAPGKERELVAAISSSSGSTYYADSVKGRFTISRDNAKNTVYLQMNSLKPEDTAVYYCAARTWRVSGTYKYDYWGQGTQVTVSS | low polyreactivity |
| QVQLVESGGGLVQAGGSLRLSCAASGRIFTSYVMGWYRQAPGKERELVAAITWGGSTKYADSVKGRFTISRVNAKNTVYLQMNSLKPEDTAVYYCAADGGEYYKGFFAVPYGYWGQGTQVTVSS | low polyreactivity |
| QVQLVESGGGLVQAGGSLRLSCAASGRIFTTYAMGWYRQAPGKEMELVAAIDYSDGSTYYADSVKGRFTISRDNAKNTVYLQMNSLNPEDTAVYYCAADGTYVWGSEEGNYWGQGTQVTVSS | low polyreactivity |
| QVQLVESGGGLVQAGGSLRLSCAASGRIFTVNAMGWYRQAPGKERELVASITGRGTRTYYADSVKGRFTISRDNAKNTVYLQMNSLKPEDTAVYYCAAAVARVKYDSKGYYWGQGTQVTVSS | high polyreactivity |
| QVQLVESGGGLVQAGGSLRLSCAASGRIFTVYALGWSRQAPGKERELVAAISRGRSTYADSVKGRFTISRDNAKNTVYLQLNSLKPEDTGVYYCAAVNFRKGEDYWGQGTQVTVSS | high polyreactivity |
| QVQLVESGGGLVQAGGSLRLSCAASGRIFTVYGMGWYRQAPGKERELVAAISWSGGGTYYADSVKGRFTISRDNAKNTVYLHMNSLKPEDTAVYYCNADRQYTWSLVFFSSDYDYWGQGTQVTVSS | low polyreactivity |
| QVQLVESGGGLVQAGGSLRLSCAASGRIFTWNARGWYRQAPGKERELVARISSGTRTNYADSVKGRFTISRDNAKNTVYLQMYSLKPEDTAVYYCAAAAKRTDAYHNRRYYWGQGTQVTVSS | high polyreactivity |
| QVQLVESGGGLVQAGGSLRLSCAASGRIFTWYAMGWYRQAPGKERELVAVISSGGSTYYADSVKGRFTISRDNAKNTVYLQMNSLKPEDTAVYYCAARRSYYGRSYYYWGQGTQVTVSS | high polyreactivity |
| QVQLVESGGGLVQAGGSLRLSCAASGRIFTYNAMGWYIQAPGKERELVAAISSSVGSTYYADSVKGRFTISRDNAKNTVYLQMNSLKPEDTAVYYCAAYSYRNLRFYYWGQGTQVTVSS | high polyreactivity |
| QVQLVESGGGLVQAGGSLRLSCAASGRIFTYNARGWYRQAPGKERELVAAITYRGSSTYYADSVKGRFTISRDIAKNTVYLQMNSLKAEDTAVYYCAAVFSGFYYAYDYWGQGTQVTVSS | high polyreactivity |
| QVQLVESGGGLVQAGGSLRLSCAASGRIFTYNTMGWYRQATGKEREFVASITYSGSSTYYADSVKGRFTISRDNAKNTVYLQMNSLKPEDTAVYYCATRYGYSDGDYWGQRTQVTVSS | low polyreactivity |
| QVQLVESGGGLVQAGGSLRLSCAASGRIFTYYAMGWYRQAPGKERELVAAINGRGGRTYYADSVKGRFTISRDNAKNTVYLQMNSLKPEDTAVYYCAARGYAPDTYGYWGQGTQVTVSS | high polyreactivity |

| Sequence | polyreactivity (PSR sort gate) |
| --- | --- |
| QVQLVESGGGLVQAGGSLRLSCAASGRIFTYYGMGWYRQARGKERELVAAISSSGDSTFYADSVKGRFTISRDNGKNTVYLQMNSLKPEDTAVYYCAADYYYVWYDYWGQGTQVTVSS | low polyreactivity |
| QVQLVESGGGLVQAGGSLRLSCAASGRIFTYYTMGWYRRAPGKEREFVAAISWSGTSTYYADSVKGRFTISRDNAKNTVYLQMNSLKPEETAVFNCAARNWYSRYDYWGQGTQVTVSS | high polyreactivity |
| QVQLVESGGGLVQAGGSLRLSCAASGRIFVASAMGWYRQAPGKERELVAAISKTGGSTYYADSVKGRFTISRDNAKKTVYLQMNSLKPEDTAVYYCAADVYRRFDYWGQGTQVTVSS | low polyreactivity |
| QVQLVESGGGLVQAGGSLRLSCAASGRIFVAYTRGWYRQAPGKERELVAAITWNSGSSTYYADSVKGRFTISGDNAKNTVYLQMNSLKPEDTAVYYCAARSAGRYWNYYWGQGTQVTVSS | high polyreactivity |
| QVQLVESGGGLVQAGGSLRLSCAASGRIFVCYAMGLYRQAPGKERELVAAISSSCGSTYYADSVKGRFTISRDKAKNTVYLQMNSLKPEDTAVYYCNTHQRSRMDYWVQGTQVTVSS | low polyreactivity |
| QVQLVESGGGLVQAGGSLRLSCAASGRIFVCYAMGWYRQAPVKERELLAAITCRGGSTYYADSVKGRFTISRDNAKNTVYLQMNSLKPEDTEVYYCAAVGHSGGRRYDYWGQGTQVTVSS | high polyreactivity |
| QVQLVESGGGLVQAGGSLRLSCAASGRIFVDYAMGWYRQAPGKERELVAAIRSSGGSTYYADSVKGRFTISRDNAKNTVYLQMNSLKPEDTAVYYCNTPKYLRASSGYNYWGQGTQVTVSS | high polyreactivity |
| QVQLVESGGGLVQAGGSLRLSCAASGRIFVDYDMGWYRQAPGKERELVAAISFDGGNTYADSVKGRFTISRDNAKNTVYLQMNSLKPEDTAVYYCARDDTSPGYGDQSSNAAYYYWGQGTQVTVSS | low polyreactivity |
| QVQLVESGGGLVQAGGSLRLSCAASGRIFVFYAMGWYRQAPGKERELVAAISKSVGPTYYADSVKGRFTISRDNAKNTVYLQMNSLKPEDTAVYYCASDVDRFFTYKYDYWGQGTQVTVSS | low polyreactivity |
| QVQLVESGGGLVQAGGSLRLSCAASGRIFVGNALGWYRKAPGKERELVAAISGSGDSTYYADSVKGRFTISRDNAKNTVYLQMNSLKPEDTAVYYCNVDYDFVIYYYWYYPGYDYWGQGTQVTVSS | low polyreactivity |
| QVQLVESGGGLVQAGGSLRLSCAASGRIFVGYAMGWYRQAPGKERELVAGIRYSGGSTYYADSVKGRFTISRDNAKNTVYLQMNSLKPEDTAVYYCANQVWHYAGRPNYKYDYWGQGTQVTVSS | low polyreactivity |
| QVQLVESGGGLVQAGGSLRLSCAASGRIFVGYTMGWYRQAPGKERELVAAISSRGGRTNYADSVKGRFTISRDNAKNTVYLQMNSLKPEDTAVYYCATRLYPHQYYYWGQGSQVTVSS | high polyreactivity |
| QVQLVESGGGLVQAGGSLRLSCAASGRIFVGYTMGWYRQAPGKERELVASISWSGASTYYADSVKGRFTISRDNAKNTVYLQMNSLKPEDTAVYYCAARYYKYYNSYDYWGQGTQVTVSS | high polyreactivity |
| QVQLVESGGGLVQAGGSLRLSCAASGRIFVINAMGWYRQAPGKERELVAAIRSGGSTNYADSVKGRFTISRDNAKNTVYLQMNSLKPEDTAVNYCAARNSGRRSKAYDFKMNYWGQGTQVTVSS | high polyreactivity |
| QVQLVESGGGLVQAGGSLRLSCAASGRIFVINDMGWYRKATGKERELVAAITWGSSTYADSVKGRFTISRDNAKNTVYLQMNSLKPEDTAVYYCARDVYPSTWEYDYWGQGTQVTVSS | low polyreactivity |
| QVQLVESGGGLVQAGGSLRLSCAASGRIFVINTMGWYRQAPGKERELVAAISRGGSTNYADSVKGRFTISRDNAKNTVYLQMNSLKPEDTAVYYCAATGYILFAGGGYDYWGQGTQVTVSS | low polyreactivity |
| QVQLVESGGGLVQAGGSLRLSCAASGRIFVKNAMGWYRQAPGKERELVAAISSGSSTNYADSVKGRFTISRDNAKNTVYLQMNSLKPEDTAVYYCAARQAQWDDYWGQGTQVTVSS | high polyreactivity |
| QVQLVESGGGLVQAGGSLRLSCAASGRIFVKSAMGWYRPAPGQERELVAAITSDGSTSYADSVKGRFTISRDNAKNTVYLQMNSQKPEDTAVYYCAKDFFEHSPVSHTYSSSKYDYWGQGTQVTVSS | low polyreactivity |
| QVQLVESGGGLVQAGGSLRLSCAASGRIFVKYAMGWYRQAPGKERELVAAITKSGSSTYYADSVKGRFTISRDNAKNTVYLQMNSLKPEDTAVYYCAALTISRSRTGYYWGQGTQVTVSS | low polyreactivity |
| QVQLVESGGGLVQAGGSLRLSCAASGRIFVLYAMGWYRQAPGKERELVAAISTSGGSTYYADSVKGRFTISRDNAKNTVYLQMNSLKPEDTAVYYCAADRSARFLFIQYYPYGMDYWGQGTQVTVSS | high polyreactivity |
| QVQLVESGGGLVQAGGSLRLSCAASGRIFVLYAMGWYRQAPGKERELVADITVSGGSTYYADSVKGRFTISRDNAKNTVYLQMNSLKPEDTAVYYCAADQRYWKFDSWGQGTQVTVSS | high polyreactivity |
